In test [1] the target is HIV-1 CAP256 SU Env gp140, "glycan-enhanced" (GE), produced in N. benthamiana ∆XF (HIV-1 (subtype C, CAP256 SU)). The experiment in a line: SEC; gel filtration of lectin-purified gp140; normalised, overlaid elution profiles.
Test [2] has as its target HIV-1 CAP256 SU Env gp140 produced in HEK293 cells (HIV-1 (subtype C, CAP256 SU)). The description is as above.

One may read the stoichiometry N as a count of units in the complex or per binding partner.

For “HIV-1 CAP256 SU Env gp140, "glycan-enhanced" (GE), produced in N. benthamiana ∆XF (natural protein)”, in test [1], the stoichiometry N came out at 3.

In test [2], “HIV-1 CAP256 SU Env gp140 produced in HEK293 cells (natural protein)” displayed a stoichiometry N of 3.

(Values after publication PMC9544252.)
